The text below walks through data of PMC10349104.

For orientation: Kd means the free concentration of one partner at which half of the binding sites on the other are occupied at equilibrium, for simple one-to-one binding. The low end stands for higher affinity, the high end for lower affinity. By koff is commonly meant the first-order rate constant of dissociation. A high value points to fast dissociation. What is called kon is the rate constant with which the complex forms.

Where “and” joins values, the source holds several entries; their conditions need not be identical. Identical values can stand only once.

What all share (assay): SPR
In general terms: In SPR one partner is held on a chip, and binding of the other changes the refractive index at the surface.

Experiment [1] concerns the target EVA-A(L39P) (A. americanum).
Experiment [2] has as its target EVA-A(L39P) (Amblyomma americanum).
Experiment [3] addresses EVA-A(Y44A) (A. americanum).
Experiment [4] has as its target EVA-A(Y44A) (Amblyomma americanum).
Experiment [5] concerns the target EVA-A(DC) (Amblyomma americanum).
The target in experiment [6] is EVA-A(DN) (Amblyomma americanum).
In experiment [7] the target is EVA-A(21-102) (A. americanum).
The target of experiment [8] is EVA-A(1-98) (A. americanum).
Experiment [9] has as its target EVA-A(C8) (A. americanum).

Chain of CCL15 (Q16663 22-113): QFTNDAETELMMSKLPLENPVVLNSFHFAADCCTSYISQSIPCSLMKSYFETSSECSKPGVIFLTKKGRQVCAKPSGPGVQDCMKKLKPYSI
Chain of CCL23 (P55773 22-120): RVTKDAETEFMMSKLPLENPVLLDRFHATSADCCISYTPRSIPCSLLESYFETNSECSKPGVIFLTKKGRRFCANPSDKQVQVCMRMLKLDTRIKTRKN
Chain of CCL14 (Q16627 20-93): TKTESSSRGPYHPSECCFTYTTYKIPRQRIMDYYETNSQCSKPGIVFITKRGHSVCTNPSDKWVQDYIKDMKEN
Chain of CCL8 (P80075 24-99): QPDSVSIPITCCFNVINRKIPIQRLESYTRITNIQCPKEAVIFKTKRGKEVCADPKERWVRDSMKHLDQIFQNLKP
Chain of CCL22 (O00626 25-93): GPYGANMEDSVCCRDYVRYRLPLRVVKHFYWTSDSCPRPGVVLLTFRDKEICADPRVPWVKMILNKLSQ
Chain of CCL2 (P13500 24-99): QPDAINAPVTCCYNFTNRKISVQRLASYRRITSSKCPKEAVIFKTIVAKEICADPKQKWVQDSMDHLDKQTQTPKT
Chain of CCL7 (P80098 24-99): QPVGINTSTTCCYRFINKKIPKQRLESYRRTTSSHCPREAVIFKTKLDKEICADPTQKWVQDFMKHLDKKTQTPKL
Chain of CCL27 (Q9Y4X3 25-112): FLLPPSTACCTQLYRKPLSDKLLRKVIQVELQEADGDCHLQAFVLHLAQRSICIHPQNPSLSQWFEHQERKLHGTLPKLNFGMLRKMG
Chain of CCL21 (O00585 24-134): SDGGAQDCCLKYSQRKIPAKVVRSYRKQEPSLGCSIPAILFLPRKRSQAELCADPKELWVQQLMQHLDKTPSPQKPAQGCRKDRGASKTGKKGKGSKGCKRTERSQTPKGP

For the substance “CCL16(L19A) (from UniProt O15467 24-120) (ligand)”, the Kd in [1] is 1.53 nM; in experiment [2], 1.54 nM and 1.52 nM (2×); in experiment [3], 15.9 nM; in experiment [4], 25.2 nM and 12.3 nM and 10.2 nM. The dissociation rate constant (koff) in experiment [1] was 0.00085 s⁻¹; in experiment [2] it was 0.000757 s⁻¹ and 0.000893 s⁻¹ and 0.000913 s⁻¹; in experiment [3] it was 0.00151 s⁻¹; in experiment [4] it was 0.00171 s⁻¹ and 0.00134 s⁻¹ and 0.00147 s⁻¹. Also, the kon in experiment [1] was 560000 M⁻¹ s⁻¹; in experiment [2], 492000 M⁻¹ s⁻¹ and 588000 M⁻¹ s⁻¹ and 599000 M⁻¹ s⁻¹; in experiment [3], 107000 M⁻¹ s⁻¹; in experiment [4], 68100 M⁻¹ s⁻¹ and 109000 M⁻¹ s⁻¹ and 144000 M⁻¹ s⁻¹.
Consider “CCL8 (from UniProt P80075 24-99) (ligand)”, for which the Kd in experiment [1] is 2.59 nM; in experiment [5], 188 nM and 89.1 nM and 212 nM; in [2], 2.73 nM and 2.16 nM and 2.89 nM; in [6] it was 328 nM and 146 nM and 34.1 nM; in experiment [7], 169 nM; in experiment [3], 3.62 nM. In addition, the Kd in [8] is 163 nM; in experiment [4] it was 4.46 nM and 3.95 nM and 2.44 nM. Besides, the koff is 0.00218 s⁻¹ in experiment [1]; 0.00242 s⁻¹ and 0.00205 s⁻¹ and 0.00312 s⁻¹ in experiment [2]; 0.0344 s⁻¹ in experiment [7]; 0.00156 s⁻¹ in experiment [3]; 0.0344 s⁻¹ in experiment [8]; 0.00137 s⁻¹ and 0.0015 s⁻¹ and 0.0018 s⁻¹ in experiment [4]. Also, the kon was 971000 M⁻¹ s⁻¹ in experiment [1]; 884000 M⁻¹ s⁻¹ and 949000 M⁻¹ s⁻¹ and 1.08e+06 M⁻¹ s⁻¹ in experiment [2]; 112000 M⁻¹ s⁻¹ in [7]; 474000 M⁻¹ s⁻¹ in [3]; 173000 M⁻¹ s⁻¹ in experiment [8]; 307000 M⁻¹ s⁻¹ and 378000 M⁻¹ s⁻¹ and 737000 M⁻¹ s⁻¹ in experiment [4].
As for “CCL11(F11A) (from UniProt P51671 24-97) (ligand)”, the Kd in experiment [1] is 0.51 nM; in experiment [2], 0.424 nM and 0.602 nM and 0.499 nM; in [3] it was 2.83 nM; in experiment [4], 2.64 nM and 2.95 nM and 2.91 nM. For the same substance, the koff is 0.00035 s⁻¹ in [1]; 0.000383 s⁻¹ and 0.000365 s⁻¹ and 0.000304 s⁻¹ in experiment [2]; 0.00226 s⁻¹ in experiment [3]; 0.00233 1/s (2×) and 0.00213 1/s in experiment [4]. For the same substance, the on-rate (kon) in [1] is 707000 M⁻¹ s⁻¹; in experiment [2] it was 904000 M⁻¹ s⁻¹ and 606000 M⁻¹ s⁻¹ and 610000 M⁻¹ s⁻¹; in experiment [3] it was 802000 M⁻¹ s⁻¹; in experiment [4], 884000 M⁻¹ s⁻¹ and 722000 M⁻¹ s⁻¹ and 801000 M⁻¹ s⁻¹.
With CCL14 (ligand), in experiment [5], the kon was 206000 M⁻¹ s⁻¹ and 297000 M⁻¹ s⁻¹ and 214000 M⁻¹ s⁻¹.
For the substance “CCL23 (from UniProt P55773 22-120) (ligand)”, the Kd in experiment [1] was 1.14 nM; in experiment [7], 0.51 nM; in experiment [3] it was 18.8 nM; in experiment [9], 20.3 nM; in experiment [8], 0.45 nM. In addition, the koff in experiment [1] was 0.00067 s⁻¹; in experiment [7], 4e-05 s⁻¹; in experiment [3] it was 0.00176 s⁻¹; in experiment [9], 0.00131 s⁻¹; in experiment [8] it was 2e-05 s⁻¹. In addition, the kon in [1] was found to be 140000 M⁻¹ s⁻¹; in experiment [7] it was 87000 M⁻¹ s⁻¹; in experiment [3] it was 100000 M⁻¹ s⁻¹; in experiment [9], 74000 M⁻¹ s⁻¹; in [8], 144000 M⁻¹ s⁻¹.
With “CCL14 (from UniProt Q16627 20-93) (ligand)”, the Kd in experiment [1] was 0.04 nM; in experiment [7], 0.11 nM; in experiment [3], 0.11 nM; in [9] it was 1.3 nM; in experiment [8], under 0.1 nM. Further, the koff in experiment [1] is 0.00013 s⁻¹; in experiment [7] it was 8e-05 s⁻¹; in experiment [3] it was 5e-05 s⁻¹; in experiment [9], 0.00048 s⁻¹; in [8], under 0.0001 s⁻¹. Besides, the kon turned out to be 2.41e+06 M⁻¹ s⁻¹ in experiment [1]; 703000 M⁻¹ s⁻¹ in [7]; 481000 M⁻¹ s⁻¹ in experiment [3]; 386000 M⁻¹ s⁻¹ in [9]; 239000 M⁻¹ s⁻¹ in [8].
As for “CCL2 (from UniProt P13500 24-99) (ligand)”, the Kd was 24.9 nM in experiment [1]; 25.6 nM and 20.7 nM and 28.4 nM in experiment [2]; 123 nM in [3]; 109 nM and 191 nM and 70 nM in experiment [4]. For the same substance, the koff in experiment [1] was 0.036 s⁻¹; in [2] it was 0.00858 s⁻¹ and 0.00729 s⁻¹ and 0.00847 s⁻¹; in [3] it was 0.032 s⁻¹. Moreover, the on-rate constant (kon) was 329000 M⁻¹ s⁻¹ in experiment [1]; 335000 M⁻¹ s⁻¹ and 353000 M⁻¹ s⁻¹ and 298000 M⁻¹ s⁻¹ in experiment [2]; 291000 M⁻¹ s⁻¹ in [3].
As for “CCL7 (from UniProt P80098 24-99) (ligand)”, the Kd in experiment [9] is 765 nM; in experiment [8], 1010 nM; in [4], 4.63 nM and 5.4 nM and 4.4 nM.
Take CCL15 (ligand): in experiment [5], the equilibrium dissociation constant (Kd) was 30.9 nM and 32.9 nM and 31.2 nM; the koff is 0.00162 s⁻¹ and 0.00173 s⁻¹ and 0.00167 s⁻¹; the kon is 52500 M⁻¹ s⁻¹ and 52700 M⁻¹ s⁻¹ and 53700 M⁻¹ s⁻¹.
Take “CCL22 (from UniProt O00626 25-93) (ligand)”: the Kd in experiment [1] was 1.46 nM; in experiment [5] it was 125 nM; in experiment [2], 1.64 nM and 1.17 nM and 1.57 nM; in experiment [6], 64.9 nM and 73.9 nM and 46 nM; in [7] it was 61.6 nM; in experiment [3], 11.2 nM. Besides, the Kd in experiment [8] was 125 nM; in [4], 6.2 nM and 14.4 nM and 13.1 nM. Further, the koff in experiment [1] is 0.00292 s⁻¹; in experiment [2], 0.00125 s⁻¹ and 0.00151 s⁻¹ and 0.00165 s⁻¹; in experiment [6], 0.00186 s⁻¹ and 0.00173 s⁻¹ and 0.00125 s⁻¹; in [7], 0.00161 s⁻¹; in experiment [3], 0.00818 s⁻¹; in [8] it was 0.00084 s⁻¹. Besides, the koff in experiment [4] is 0.0056 s⁻¹ and 0.00713 s⁻¹ and 0.0118 s⁻¹. Further, the kon in experiment [1] was 1.03e+06 M⁻¹ s⁻¹; in [5], 37600 M⁻¹ s⁻¹ and 12800 M⁻¹ s⁻¹; in experiment [2], 763000 M⁻¹ s⁻¹ and 1.28e+06 M⁻¹ s⁻¹ and 1.05e+06 M⁻¹ s⁻¹; in [6] it was 28700 M⁻¹ s⁻¹ and 23400 M⁻¹ s⁻¹ and 27200 M⁻¹ s⁻¹; in experiment [7], 26000 M⁻¹ s⁻¹; in experiment [3], 766000 M⁻¹ s⁻¹. Besides, the kon in [8] was 29000 M⁻¹ s⁻¹; in experiment [4], 903000 M⁻¹ s⁻¹ and 496000 M⁻¹ s⁻¹ and 899000 M⁻¹ s⁻¹.
Turning to “CCL21 (from UniProt O00585 24-134) (ligand)”, the Kd in experiment [1] was 24.5 nM; in experiment [5], 30.1 nM and 12.1 nM and 11.4 nM; in experiment [2] it was 24.3 nM and 19.8 nM and 29.4 nM; in experiment [6], 51.1 nM and 51.4 nM and 40 nM; in [7], 47.5 nM; in experiment [3], 119 nM. The dissociation constant (Kd) in experiment [8] was 17.8 nM; in [4] it was 135 nM and 40.8 nM and 180 nM. Besides, the koff in [1] was 0.00484 s⁻¹; in experiment [5] it was 0.00233 s⁻¹ and 0.00174 s⁻¹ and 0.00177 s⁻¹; in experiment [2] it was 0.00331 s⁻¹ and 0.00445 s⁻¹ and 0.00676 s⁻¹; in [6], 0.0125 s⁻¹ and 0.0092 s⁻¹ and 0.00995 s⁻¹; in experiment [7], 0.0106 s⁻¹; in [3] it was 0.00356 s⁻¹. The koff was 0.00233 s⁻¹ in experiment [8]; 0.00431 s⁻¹ and 0.00219 s⁻¹ and 0.00417 s⁻¹ in experiment [4]. For the same substance, the kon in [1] was 197000 M⁻¹ s⁻¹; in [5], 77500 M⁻¹ s⁻¹ and 144000 M⁻¹ s⁻¹ and 154000 M⁻¹ s⁻¹; in experiment [2], 136000 M⁻¹ s⁻¹ and 225000 M⁻¹ s⁻¹ and 230000 M⁻¹ s⁻¹; in experiment [6], 245000 M⁻¹ s⁻¹ and 179000 M⁻¹ s⁻¹ and 248000 M⁻¹ s⁻¹; in experiment [7], 224000 M⁻¹ s⁻¹; in experiment [3] it was 36000 M⁻¹ s⁻¹. Besides, the kon in [8] was 126000 M⁻¹ s⁻¹; in experiment [4], 32000 M⁻¹ s⁻¹ and 53800 M⁻¹ s⁻¹ and 23100 M⁻¹ s⁻¹.
As for “CCL27 (from UniProt Q9Y4X3 25-112) (ligand)”, the equilibrium dissociation constant (Kd) in [1] was 63.9 nM; in experiment [5] it was 36.9 nM and 53 nM and 35.3 nM; in experiment [2], 48.2 nM and 78.8 nM and 64.7 nM; in experiment [3] it was 110 nM; in experiment [8] it was 41.7 nM; in experiment [4], 59.4 nM and 191 nM and 78.8 nM. Further, the koff was 0.00309 s⁻¹ in [1]; 0.00409 s⁻¹ and 0.00367 s⁻¹ and 0.0037 s⁻¹ in experiment [5]; 0.00218 s⁻¹ and 0.00268 s⁻¹ and 0.00356 s⁻¹ in experiment [2]; 0.00639 s⁻¹ in [3]; 0.00409 s⁻¹ in experiment [8]. The kon in experiment [1] was 45000 M⁻¹ s⁻¹; in experiment [5], 111000 M⁻¹ s⁻¹ and 69300 M⁻¹ s⁻¹ and 105000 M⁻¹ s⁻¹; in [2], 45300 M⁻¹ s⁻¹ and 34000 M⁻¹ s⁻¹ and 55000 M⁻¹ s⁻¹; in experiment [3] it was 52000 M⁻¹ s⁻¹; in experiment [8] it was 95000 M⁻¹ s⁻¹; in experiment [4], 51200 M⁻¹ s⁻¹ and 70200 M⁻¹ s⁻¹ and 34000 M⁻¹ s⁻¹.
Regarding “CCL15 (from UniProt Q16663 22-113) (ligand)”, the Kd in experiment [1] was 26.6 nM; in experiment [7] it was 34 nM; in [3], 161 nM; in experiment [9], 577 nM; in experiment [8] it was 31.7 nM. Further, the koff in [1] came out at 0.00467 s⁻¹; in experiment [7], 0.00214 s⁻¹; in experiment [3], 0.0117 s⁻¹; in experiment [9], 0.0127 s⁻¹; in experiment [8] it was 0.00162 s⁻¹. Besides, the kon in [1] came out at 102000 M⁻¹ s⁻¹; in experiment [7], 63000 M⁻¹ s⁻¹; in experiment [3], 79000 M⁻¹ s⁻¹; in [9] it was 22000 M⁻¹ s⁻¹; in experiment [8], 53000 M⁻¹ s⁻¹.
